Data taken from the supplement of paper PMC10201428.
± gives the standard deviation of the averaged measurements.

Test system: VchCAST RNA-guided transposition machinery (E. coli BL21(DE3) host, lacZ target)
Experiment: relative integration efficiency (T-RL orientation) vs wild-type transposon end (log2 (normalized fold change)); transposon end mutated: left end; higher = more efficient transposition
Protocol: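 Pooled, barcoded VchCAST (Tn6677) mini-transposon donor libraries; each variable transposon-end sequence sits in a fixed pDonor mini-transposon context (10-bp barcode and cargo not included). Left- or right-end libraries were co-transformed with pEffector (TniQ-Cascade, TnsABC, lacZ crRNA, T7, 0.1 mM IPTG) into E. coli BL21(DE3) and grown 18 h at 37 C. T-LR and T-RL junction amplicons were sequenced; output/input barcode fold change was normalised to the mean of four wild-type barcodes and log2-transformed. Two biological replicates; zero-count/undetected variants carry floor values (-10 / -15), censored here. Barcode uncoupling by PCR recombination adds noise.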

AATGTTGTTGATGCAACCATAAAGTGATATTTAATAATTATTTATAATCAGCAACTTAACCACAAAACAACACGCGCGGTCGCGAGACACCCCACCAACGCCTGGTCGCGGGGGTGTCCGATCTGATTTCAGCAAAACTACTGCAGTAAGAA
relative integration efficiency (log2): -7.6 ± 2.4

AATGTTGTTGATGCAACCATAAAGTGATATTTAATAATTATTTATAATCAGCAACTTAACCACAAAACAACCATATATGTCGCGAGACACCCCACCAACGCCTGGTCGCGGGGGTGTCCGATCTGATTTCAGCAAAACTACTGCAGTAAGAA
relative integration efficiency (log2): -6.15 ± 1.3

AATGTTGTTGATGCAACCATAAAGTGATATTTAATAATTATTTATAATCAGCAACTTAACCACAAAACAACCATATATTGATAACAAAACAACCATAAGTTGATATTTTTGTGAATCGAGTATTTCAGCAAAACTACTGCAGTAAGAAAGTT
relative integration efficiency (log2): -4.08 ± 0.82

AATGTTGTTGATGCAACCATAAAGTGATATTTAATAATTATTTATAATCAGCAACTTAACCACAAAACAACCATATCGGTCGCGAGACACCCCACCAACGCCTGGTCGCGGGGGTGTCCGATCTGATTTCAGCAAAACTACTGCAGTAAGAA
relative integration efficiency (log2): -6.09 ± 0.98

AATGTTGTTGATGCAACCATAAAGTGATATTTAATAATTATTTATAATCAGCAACTTAACCACAAAAGTTGGTATATAACTATAGAGACAAAAGTTGGTATTCAACTATAAAATGTGAATCGAGTATTTCAGCAAAACTACTGCAGTAAGAA
relative integration efficiency (log2): -6.13 ± 2.2

AATGTTGTTGATGCAACCATAAAGTGATATTTAATAATTATTTATAATCAGCAACTTAACCACAAAATGTGAATCGAGTATTTCAGCAAAACTACTGCAACCATATATTGATATCTCACAAAACAACCATAAGTTGATATTTTCAGTAAGAA
relative integration efficiency (log2): -6.39 ± 0.78

AATGTTGTTGATGCAACCATAAAGTGATATTTAATAATTATTTATAATCAGCAACTTAACCACAAAATGTGAATCGAGTATTTCAGCCAACCATATATTGATATCTCACAAAACAACCATAAGTTGATATTTTAAAACTACTGCAGTAAGAA
relative integration efficiency (log2): -5.8 ± 1.9

AATGTTGTTGATGCAACCATAAAGTGATATTTAATAATTATTTATAATCAGCAACTTAACCACAAACACCAACGCGCGGTCGCGAGACACCCCACCAACGCCTGGTCGCGGGGGTGTCCGATCTGATTTCAGCAAAACTACTGCAGTAAGAA
relative integration efficiency (log2): -6.34 ± 0.81

AATGTTGTTGATGCAACCATAAAGTGATATTTAATAATTATTTATAATCAGCAACTTAACCACAACCATATATTGATATCTCACAAAACAACCATAAGTTGATATTTTTGTGAATCGAGTATTTCAGCAAAACTACTGCAGTAAGAAAGTTA
relative integration efficiency (log2): -5.27 ± 0.97

AATGTTGTTGATGCAACCATAAAGTGATATTTAATAATTATTTATAATCAGCAACTTAACCACCAACCATATATTGATATCTCAAAAACAAAACAACCATAAGTTGATATTTTTGTGAATCGAGTATTTCAGCAAAACTACTGCAGTAAGAA
relative integration efficiency (log2): -2.83 ± 0.93

AATGTTGTTGATGCAACCATAAAGTGATATTTAATAATTATTTATAATCAGCAACTTAACCACCAACCATATATTGATATCTCACAAAACAACCATAAGTTGATATTTTTGTGAATCGAGTATTTCAGCAAAACTACTGCAGTAAGAAAGTT
relative integration efficiency (log2): -4.85 ± 1.1

AATGTTGTTGATGCAACCATAAAGTGATATTTAATAATTATTTATAATCAGCAACTTAACCACCCCCACCAACGCGCGGTCGCGAGACACCCCACCAACGCCTGGTCGCGGGGGTGTCCGATCTGATTTCAGCAAAACTACTGCAGTAAGAA
relative integration efficiency (log2): -6.56 ± 0.76

AATGTTGTTGATGCAACCATAAAGTGATATTTAATAATTATTTATAATCAGCAACTTAACCCAACCATATATTGATATCTCACAAAAACAAAACAACCATAAGTTGATATTTTTGTGAATCGAGTATTTCAGCAAAACTACTGCAGTAAGAA
relative integration efficiency (log2): -3.11 ± 0.98

AATGTTGTTGATGCAACCATAAAGTGATATTTAATAATTATTTATAATCAGCAACTTAACCCAACCATATATTGATATCTCACAAAACAACCATAAGTTGATATTTTTGTGAATCGAGTATTTCAGCAAAACTACTGCAGTAAGAAAGTTAC
relative integration efficiency (log2): -7.05 ± 1.7

AATGTTGTTGATGCAACCATAAAGTGATATTTAATAATTATTTATAATCAGCAACTTAACCCACCCCACCAACGCGCGGTCGCGAGACACCCCACCAACGCCTGGTCGCGGGGGTGTCCGATCTGATTTCAGCAAAACTACTGCAGTAAGAA
relative integration efficiency (log2): -6.3 ± 1.9

AATGTTGTTGATGCAACCATAAAGTGATATTTAATAATTATTTATAATCAGCAACTTACAACACCCCACCAACGCGCGGTCGCGAGACACCCCACCAACGCCTGGTCGCGGGGGTGTCCGATCTGATTTCAGCAAAACTACTGCAGTAAGAA
relative integration efficiency (log2): -5.66 ± 1.2

AATGTTGTTGATGCAACCATAAAGTGATATTTAATAATTATTTATAATCAGCAACTTCCAACACCCCACCAACGCGCGGTCGCGAGACACCCCACCAACGCCTGGTCGCGGGGGTGTCCGATCTGATTTCAGCAAAACTACTGCAGTAAGAA
relative integration efficiency (log2): -4.36 ± 1.2

AATGTTGTTGATGCAACCATAAAGTGATATTTAATAATTATTTATAATCAGCCAACCATATATTGATATCTCAACTTAACCACAAAAACAAAACAACCATAAGTTGATATTTTTGTGAATCGAGTATTTCAGCAAAACTACTGCAGTAAGAA
relative integration efficiency (log2): -7.27 ± 2.4

AATGTTGTTGATGCAACCATAAAGTGATATTTAATAATTATTTATAATCAGCCAACCATATATTGATATCTCACAAAACAACCATAAGTTGATATTTTAACTTAACCACAAAATGTGAATCGAGTATTTCAGCAAAACTACTGCAGTAAGAA
relative integration efficiency (log2): -6.91 ± 2.5

AATGTTGTTGATGCAACCATAAAGTGATATTTAATAATTATTTATAATCATACCAGGCCAACACCCCACCAACGCGCGGTCGCGAGACACCCCACCAACGCCTGGTCGCGGGGGTGTCCGATCTGATTTCAGCAAAACTACTGCAGTAAGAA
relative integration efficiency (log2): -6.02 ± 1.1

AATGTTGTTGATGCAACCATAAAGTGATATTTAATAATTATTTATAATCATTGTGAGCGGATAACAACAACCATATATTGATATCTCACAAAACAACCATAAGTTGATATTTTTGTGAATCGAGTATTTCAGCAAAACTACTGCAGTAAGAA
relative integration efficiency (log2): -3.2 ± 0.53

AATGTTGTTGATGCAACCATAAAGTGATATTTAATAATTATTTATAATCCAACCATATATTGATATCTCACAAAACAACCATAAGTTGATATTTTTGTGAATCGAGTATTTCAGCAAAACTACTGCAGTAAGAAAGTTACTTCGTGGTATGG
relative integration efficiency (log2): -6.76 ± 0.87

AATGTTGTTGATGCAACCATAAAGTGATATTTAATAATTATTTATAATCCAACCATATATTGATATCTCAGCAACTTAACCACAAAAACAAAACAACCATAAGTTGATATTTTTGTGAATCGAGTATTTCAGCAAAACTACTGCAGTAAGAA
relative integration efficiency (log2): -5.59 ± 1.3

AATGTTGTTGATGCAACCATAAAGTGATATTTAATAATTATTTATACAACCATATATTGATATCTCACAAAACAACCATAAGTTGATATTTTTGTGAATCGAGTATTTCAGCAAAACTACTGCAGTAAGAAAGTTACTTCGTGGTATGGGAG
relative integration efficiency (log2): -6.01 ± 0.81

AATGTTGTTGATGCAACCATAAAGTGATATTTAATAATTATTTATCCGACTACCAGGCCAACACCCCACCAACGCGCGGTCGCGAGACACCCCACCAACGCCTGGTCGCGGGGGTGTCCGATCTGATTTCAGCAAAACTACTGCAGTAAGAA
relative integration efficiency (log2): -6.94 ± 1.3

AATGTTGTTGATGCAACCATAAAGTGATATTTAATAATTATTTCAACCATAAAGTGATATTTAACTTCAACCATATATTGATATCTCACAAAACAACCATAAGTTGATATTTTTGTGAATCGAGTATTTCAGCAAAACTACTGCAGTAAGAA
relative integration efficiency (log2): -6.43 ± 0.89

AATGTTGTTGATGCAACCATAAAGTGATATTTAATAATTATTTCAACCATATATTGATATCTCATAATCAGCAACTTAACCACAAAAACAAAACAACCATAAGTTGATATTTTTGTGAATCGAGTATTTCAGCAAAACTACTGCAGTAAGAA
relative integration efficiency (log2): -5.79 ± 0.8

AATGTTGTTGATGCAACCATAAAGTGATATTTAATAATTCAACCATAAAGTGATATTTAACTTAACCCAACCATATATTGATATCTCACAAAACAACCATAAGTTGATATTTTTGTGAATCGAGTATTTCAGCAAAACTACTGCAGTAAGAA
relative integration efficiency (log2): -4.15 ± 0.95

AATGTTGTTGATGCAACCATAAAGTGATATTTAATAATTCGGGCGCCGACTACCAGGCCAACACCCCACCAACGCGCGGTCGCGAGACACCCCACCAACGCCTGGTCGCGGGGGTGTCCGATCTGATTTCAGCAAAACTACTGCAGTAAGAA
relative integration efficiency (log2): -7.09 ± 1

AATGTTGTTGATGCAACCATAAAGTGATATTTATACCGTTCGTATACGATACATTATACGAAGTTATCAACCATATATTGATATCTCACAAAACAACCATAAGTTGATATTTTTGTGAATCGAGTATTTCAGCAAAACTACTGCAGTAAGAA
relative integration efficiency (log2): -4.08 ± 1.3

AATGTTGTTGATGCAACCATAAAGTGATATTTATATTAATAAATATTAGTCGTTGAATTGGTGTTTTCAACCATATATTGATATCTCACAAAACAACCATAAGTTGATATTTTTGTGAATCGAGTATTTCAGCAAAACTACTGCAGTAAGAA
relative integration efficiency (log2): -3.31 ± 1.4

AATGTTGTTGATGCAACCATAAAGTGATATTTATATTCTAAATGTTGATTAATTTGAATCATCATCTCAACCATATATTGATATCTCACAAAACAACCATAAGTTGATATTTTTGTGAATCGAGTATTTCAGCAAAACTACTGCAGTAAGAA
relative integration efficiency (log2): -5.04 ± 1

AATGTTGTTGATGCAACCATAAAGTGATATTTATTGACAGCTAGCTCAGTCCTAGGTATAATGCTAGCAACCATATATTGATATCTCACAAAACAACCATAAGTTGATATTTTTGTGAATCGAGTATTTCAGCAAAACTACTGCAGTAAGAA
relative integration efficiency (log2): -8.14 ± 0.72

AATGTTGTTGATGCAACCATAAAGTGATATTTATTGACGGCTAGCTCAGTCCTAGGTATAGTGCTAGCAACCATATATTGATATCTCACAAAACAACCATAAGTTGATATTTTTGTGAATCGAGTATTTCAGCAAAACTACTGCAGTAAGAA
relative integration efficiency (log2): -6.66 ± 0.33

AATGTTGTTGATGCAACCATAAAGTGCGCGGGCATAATTATTTATAATCAGCAACTTAACCACAAAACAACCATATATTGCGCGAGAACAAAACAACCATAAGTTGCGCGGGGTGTGAATCGAGTATTTCAGCAAAACTACTGCAGTAAGAA
relative integration efficiency (log2): -7.87 ± 2.2
